Assay results as given in publication PMC10715180.

What was measured:
Experiment in all cases: EMSA
Settings in all cases: […] (binding temperature not stated)
[1] = biological target: PhoP K224A K224A (Mycobacterium abscessus subsp. massiliense CIP108297 (Mmas; subspecies name implied?)) (UniProt B1MHU9)
[2] = biological target: PhoP (PhoPmas) WT, unphosphorylated (Mycobacterium abscessus subsp. massiliense CIP108297 (Mmas; subspecies name implied?)) (UniProt B1MHU9)
[3] = biological target: PhoP D71N D71N (Mycobacterium abscessus subsp. massiliense CIP108297 (Mmas; subspecies name implied?)) (UniProt B1MHU9)

With “AGGTAATCTTCCCCCCAAAATTTACGATGCGCTGGATCTTCACTGTGAGCTTCCTGTGAGTTACTCACAGCAGATTGTCAGCCAACCGCGCCAGGTCGCCCTACAGTTGAGCC (double strand) [phoP promoter probe WT]” the binding [1] was “no binding”, the binding [2] was “binds” and the binding [3] was “binds more weakly”.
